Kd data for 34 molecules are collected here from patent US20210388110A1 (published 2021).

For this test, the target named is T1, soluble human CD3ε chain (human, UniProt P07766 23-126, limits assumed).
T1 construct: the text says soluble human CD3ε chain; also called human CD3 epsilon chain
Briefly: SPR (Biacore). (SPR reads the build-up and loss of mass on a sensor chip optically.)

Changes are numbered by the printed parent chain.

T1 sequence (P07766 23-126 limits assumed): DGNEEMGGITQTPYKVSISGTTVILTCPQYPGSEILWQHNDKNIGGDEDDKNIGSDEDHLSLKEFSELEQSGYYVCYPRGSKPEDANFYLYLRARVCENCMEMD

B1: TR01H040-E22Hh/none-Hi-Kn010G3/L0262-k0 (antibody, human IgG1, kappa, L234A L235A, N297A)
heavy: QVQLVESGGGLVQPGRSLRLSCAASGFTFSNAWMHWVRQAPGKGLEWVAQIKDKSQNYATYYAESVKGRFTISRADSKNSIYLQMNSLKTEDTAVYYCRYVHYSASYGVDAWGQGTTVTVSSASTKGPSVFPLAPSSKSTSGGTAALGCLVKDYFPEPVTVSWNSGALTSGVHTFPAVLQSSGLYSLSSVVTVPSSSLGTQTYICNVNHKPSNTKVDKKVEPKSCDKTHTCPPCPAPEAAGGPSVFLFPPKPKDTLMISRTPEVTCVVVDVSHEDPEVKFNWYVDGVEVHNAKTKPREEQYASTYRVVSVLTVLHQDWLNGKEYKCKVSNKALPAPIEKTISKAKGQPREPQVYTLPPSRCELTKNQVSLSCAVKGFYPSDIAVEWESNGQPENNYKTTPPVLDSDGSFFLVSKLTVDKSRWQQGNVFSCSVMHEALHNHYTQKSLSLSPDYKDDDDK
chain: EPKSSDKTHTCPPCPAPELLGGPSVFLFPPKPKDTLMISRTPEVTCVVVDVSHEDPEVKFNWYVDGVEVHNAKTKPREEQYNSTYRVVSVLTVLHQDWLNGKEYKCKVSNKALPAPIEKTISKAKGQPREPQVCTLPPSRDELTKNQVSLWCLVKGFYPSDIAVEWESNGQPENNYKTTPPVLDSDGSFFLYSKLTVDKSRWQQGNVFSCSVMHEALHNRYTQKSLSLSP
light: DIVMTQSPLSLPVTPGEPASISCRSSQPPVHSNRNTYLHWYQQKPGQAPRLLIYKVSNRFSGVPDRFSGSGSGTDFTLKISRVEAEDVGVYYCAQGTQVPYTFGQGTKLEIKRTVAAPSVFIFPPSDEQLKSGTASVVCLLNNFYPREAKVQWKVDNALQSGNSQESVTEQDSKDSTYSLSSTLTLSKADYEKHKVYACEVTHQGLSSPVTKSFNRGEC
notes: single-arm
Usually Kd stands for the equilibrium constant for the complex coming apart. A higher Kd goes with weaker binding. The molecule B1 had a Kd of 0.0181 µM. In other words, the double-digit nanomolar range.

B2: TR01H048-E22Hh/none-Hi-Kn010G3/L0000-k0 (antibody, human IgG1, kappa, L234A L235A, N297A)
heavy: B1 heavy with A75D, A111I
chain: B1 chain
light: B1 light with P28S, P29L, A94G
notes: single-arm
In turn, B2 had a Kd of 0.0452 µM.

B3: TR01H041-E22Hh/none-Hi-Kn010G3/L0000-k0 (antibody, human IgG1, kappa, L234A L235A, N297A)
heavy: B1 heavy with A111Y
chain: B1 chain
light: B1 light with P28S, P29L, A94G
notes: single-arm
In turn, B3 returned a Kd of 0.0316 µM.

B4: TR01H062-E22Hh/none-Hi-Kn010G3/L0000-k0 (antibody, human IgG1, kappa, L234A L235A, N297A)
heavy: B1 heavy with S104A
chain: B1 chain
light: B1 light with P28S, P29L, A94G
notes: single-arm
B4 displayed a Kd of 0.0313 µM.

B5: TR01H047-E22Hh/none-Hi-Kn010G3/L0000-k0 (antibody, human IgG1, kappa, L234A L235A, N297A)
heavy: B1 heavy with Q56N, A75D, A111I
chain: B1 chain
light: B1 light with P28S, P29L, A94G
notes: single-arm
The molecule B5 came in with a Kd of 0.0204 µM.

B6: TR01H040-E22Hh/none-Hi-Kn010G3/TR01L015-k0 (antibody, human IgG1, kappa, L234A L235A, N297A)
heavy: B1 heavy
chain: B1 chain
light: B1 light with P28S, Q42L, A48S, R50Q, A94G
notes: single-arm
Molecule B6 returned a Kd of 0.0395 µM.

B7: TR01H050-E22Hh/none-Hi-Kn010G3/L0000-k0 (antibody, human IgG1, kappa, L234A L235A, N297A)
heavy: B1 heavy with A75D, A111Y
chain: B1 chain
light: B1 light with P28S, P29L, A94G
notes: single-arm
Regarding B7, the Kd came to 0.0576 µM. The Kd values of the last two molecules are within 1.5-fold of each other.

B8: TR01H061-E22Hh/none-Hi-Kn010G3/L0222-k0 (antibody, human IgG1, kappa, L234A L235A, N297A)
heavy: B1 heavy with S104A, A111I
chain: B1 chain
light: B1 light with P28S, L38I, H39Q, A94Y
notes: single-arm
Turning to B8, the Kd worked out at 0.0188 µM.

B9: TR01H051-E22Hh/none-Hi-Kn010G3/L0000-k0 (antibody, human IgG1, kappa, L234A L235A, N297A)
heavy: B1 heavy with Q56N, I81L, A111I
chain: B1 chain
light: B1 light with P28S, P29L, A94G
notes: single-arm
Consider B9, for which the Kd turned out to be 0.0291 µM. This Kd is about 1.5-fold higher than that of the molecule before.

B10: TR01H055-E22Hh/none-Hi-Kn010G3/L0000-k0 (antibody, human IgG1, kappa, L234A L235A, N297A)
heavy: B1 heavy with Q56N, A75D, I81L, A111I
chain: B1 chain
light: B1 light with P28S, P29L, A94G
notes: single-arm
The molecule B10 had a Kd of 0.0388 µM.

B11: TR01H040-E22Hh/none-Hi-Kn010G3/TR01L018-k0 (antibody, human IgG1, kappa, L234A L235A, N297A)
heavy: B1 heavy
chain: B1 chain
light: B1 light with R24Q, S25A, Q27E, P28S, Q42L, A48S, R50Q, A94G
notes: single-arm
B11 came in with a Kd of 0.0451 µM. The Kd values of the last two molecules are within 1.5-fold of each other.

B12: TR01H040-E22Hh/none-Hi-Kn010G3/TR01L012-k0 (antibody, human IgG1, kappa, L234A L235A, N297A)
heavy: B1 heavy
chain: B1 chain
light: B1 light with P28S, P29L, Q42L, A48S, R50Q, S61R, A94G, L109V, K112E
notes: single-arm
B12: binding was put at a Kd of 0.0422 µM.

B13: TR01H040-E22Hh/none-Hi-Kn010G3/TR01L011-k0 (antibody, human IgG1, kappa, L234A L235A, N297A)
heavy: B1 heavy
chain: B1 chain
light: B1 light with R24Q, S25A, Q27E, P28S, P29L, S61R, A94G, L109V, K112E
notes: single-arm
B13 had a Kd of 0.0357 µM.

B14: TR01H040-E22Hh/none-Hi-Kn010G3/TR01L009-k0 (antibody, human IgG1, kappa, L234A L235A, N297A)
heavy: B1 heavy
chain: B1 chain
light: B1 light with P28S, P29L, Q42L, A48S, R50Q, S61R, A94G
notes: single-arm
For B14, the Kd was determined as 0.0356 µM.

B15: TR01H061-E22Hh/none-Hi-Kn010G3/L0215-k0 (antibody, human IgG1, kappa, L234A L235A, N297A)
heavy: B1 heavy with S104A, A111I
chain: B1 chain
light: B1 light with L38I, A94G
notes: single-arm
In turn, B15 gave an equilibrium dissociation constant (Kd) of 0.0154 µM. Against the preceding molecule, the Kd is about 2.3-fold lower.

B16: TR01H040-E22Hh/none-Hi-Kn010G3/TR01L010-k0 (antibody, human IgG1, kappa, L234A L235A, N297A)
heavy: B1 heavy
chain: B1 chain
light: B1 light with P28S, P29L, S61R, A94G, L109V, K112E
notes: single-arm
B16 gave a Kd of 0.0328 µM. This Kd is about 2.1-fold higher than that of the molecule before.

B17: TR01H042-E22Hh/none-Hi-Kn010G3/L0000-k0 (antibody, human IgG1, kappa, L234A L235A, N297A)
heavy: B1 heavy with L11V, R16G
chain: B1 chain
light: B1 light with P28S, P29L, A94G
notes: single-arm
B17 registered a Kd of 0.0448 µM.

B18: TR01H045-E22Hh/none-Hi-Kn010G3/L0000-k0 (antibody, human IgG1, kappa, L234A L235A, N297A)
heavy: B1 heavy with A23S
chain: B1 chain
light: B1 light with P28S, P29L, A94G
notes: single-arm
For the molecule B18, the Kd came out at 0.0522 µM.

B19: TR01H061-E22Hh/none-Hi-Kn010G3/L0226-k0 (antibody, human IgG1, kappa, L234A L235A, N297A)
heavy: B1 heavy with S104A, A111I
chain: B1 chain
light: B1 light with P28S, L38I, A94I
notes: single-arm
The molecule B19 registered a Kd of 0.0471 µM.

B20: TR01H040-E22Hh/none-Hi-Kn010G3/TR01L013-k0 (antibody, human IgG1, kappa, L234A L235A, N297A)
heavy: B1 heavy
chain: B1 chain
light: DIVMTQSPLSLPVTPGEPASISCQASESLVHSNRNTYLHWYLQKPGQSPQLLIYKVSNRFRGVPDRFSGSGSGTDFTLKISRVEAEDVGVYYCGQGTQVPYTFGQGTKVEIERTVAAPSVFIFPPSDEQLKSGTASVVCLLNNFYPREAKVQWKVDNALQSGNSQESVTEQDSKDSTYSLSSTLTLSKADYEKHKVYACEVTHQGLSSPVTKSFNRGEC
notes: single-arm
Consider B20, for which the affinity, expressed as Kd, was 0.0415 µM.

B21: TR01H044-E22Hh/none-Hi-Kn010G3/L0000-k0 (antibody, human IgG1, kappa, L234A L235A, N297A)
heavy: B1 heavy with A23S, A111I
chain: B1 chain
light: B1 light with P28S, P29L, A94G
notes: single-arm
As for B21, the Kd was 0.0352 µM.

B22: TR01H065-E22Hh/none-Hi-Kn010G3/L0000-k0 (antibody, human IgG1, kappa, L234A L235A, N297A)
heavy: B1 heavy with A75D, S104A
chain: B1 chain
light: B1 light with P28S, P29L, A94G
notes: single-arm
B22 gave a Kd of 0.0431 µM.

B23: TR01H040-E22Hh/none-Hi-Kn010G3/TR01L019-k0 (antibody, human IgG1, kappa, L234A L235A, N297A)
heavy: B1 heavy
chain: B1 chain
light: B20 light with L29P, R61S, G94Y, V109L, E112K
notes: single-arm
Molecule B23 returned a Kd of 0.0032 µM.

B24: TR01H061-E22Hh/none-Hi-Kn010G3/L0000-k0 (antibody, human IgG1, kappa, L234A L235A, N297A)
heavy: B1 heavy with S104A, A111I
chain: B1 chain
light: B1 light with P28S, P29L, A94G
notes: single-arm
The molecule B24 displayed a Kd of 0.0171 µM.

B25: TR01H063-E22Hh/none-Hi-Kn010G3/L0000-k0 (antibody, human IgG1, kappa, L234A L235A, N297A)
heavy: B1 heavy with L11V, R16G, S104A
chain: B1 chain
light: B1 light with P28S, P29L, A94G
notes: single-arm
In turn, B25 showed a Kd of 0.0435 µM.

B26: TR01H046-E22Hh/none-Hi-Kn010G3/L0000-k0 (antibody, human IgG1, kappa, L234A L235A, N297A)
heavy: B1 heavy with A23S, A111Y
chain: B1 chain
light: B1 light with P28S, P29L, A94G
notes: single-arm
B26 showed a Kd of 0.0423 µM.

B27: TR01H049-E22Hh/none-Hi-Kn010G3/L0000-k0 (antibody, human IgG1, kappa, L234A L235A, N297A)
heavy: B1 heavy with A75D
chain: B1 chain
light: B1 light with P28S, P29L, A94G
notes: single-arm
Regarding B27, the Kd came to 0.0679 µM. Compared with the last molecule, the Kd is about 1.6-fold higher.

B28: TR01H066-E22Hh/none-Hi-Kn010G3/L0000-k0 (antibody, human IgG1, kappa, L234A L235A, N297A)
heavy: B1 heavy with I81L, S104A
chain: B1 chain
light: B1 light with P28S, P29L, A94G
notes: single-arm
B28 displayed a Kd of 0.0602 µM.

B29: TR01H061-E22Hh/none-Hi-Kn010G3/L0200-k0 (antibody, human IgG1, kappa, L234A L235A, N297A)
heavy: B1 heavy with S104A, A111I
chain: B1 chain
light: B1 light with S25P, P28S, A94G
notes: single-arm
With B29, the Kd was found to be 0.0127 µM. This Kd is about 4.7-fold lower than that of the molecule before.

B30: TR01H052-E22Hh/none-Hi-Kn010G3/L0000-k0 (antibody, human IgG1, kappa, L234A L235A, N297A)
heavy: B1 heavy with I81L, A111I
chain: B1 chain
light: B1 light with P28S, P29L, A94G
notes: single-arm
Turning to B30, binding was put at a Kd of 0.0627 µM.

B31: TR01H043-E22Hh/none-Hi-Kn010G3/L0000-k0 (antibody, human IgG1, kappa, L234A L235A, N297A)
heavy: B1 heavy with A23S, Q56N, A111I
chain: B1 chain
light: B1 light with P28S, P29L, A94G
notes: single-arm
B31 displayed a Kd of 0.0152 µM. Against the preceding molecule, the Kd is about 4.1-fold lower.

B32: TR01H040-E22Hh/none-Hi-Kn010G3/TR01L016-k0 (antibody, human IgG1, kappa, L234A L235A, N297A)
heavy: B1 heavy
chain: B1 chain
light: B1 light with P28S, Q42L, A48S, R50Q, A94Y
notes: single-arm
Turning to B32, the Kd was 0.00252 µM.

B33: TR01H064-E22Hh/none-Hi-Kn010G3/L0000-k0 (antibody, human IgG1, kappa, L234A L235A, N297A)
heavy: B1 heavy with A23S, S104A
chain: B1 chain
light: B1 light with P28S, P29L, A94G
notes: single-arm
Molecule B33 came in with a Kd of 0.0307 µM.

B34: TR01H040-E22Hh/none-Hi-Kn010G3/TR01L008-k0 (antibody, human IgG1, kappa, L234A L235A, N297A)
heavy: B1 heavy
chain: B1 chain
light: B20 light with L42Q, S48A, Q50R, V109L, E112K
notes: single-arm
B34 registered a Kd of 0.0293 µM.
